Laboratory results reported in PMC8080076.

Biological target: DEC205 (human (endogenous in blood DCs)) (UniProt O60449)
Test: flow cytometry on cells

UniProt O60449, sequence (O60449 28-1722): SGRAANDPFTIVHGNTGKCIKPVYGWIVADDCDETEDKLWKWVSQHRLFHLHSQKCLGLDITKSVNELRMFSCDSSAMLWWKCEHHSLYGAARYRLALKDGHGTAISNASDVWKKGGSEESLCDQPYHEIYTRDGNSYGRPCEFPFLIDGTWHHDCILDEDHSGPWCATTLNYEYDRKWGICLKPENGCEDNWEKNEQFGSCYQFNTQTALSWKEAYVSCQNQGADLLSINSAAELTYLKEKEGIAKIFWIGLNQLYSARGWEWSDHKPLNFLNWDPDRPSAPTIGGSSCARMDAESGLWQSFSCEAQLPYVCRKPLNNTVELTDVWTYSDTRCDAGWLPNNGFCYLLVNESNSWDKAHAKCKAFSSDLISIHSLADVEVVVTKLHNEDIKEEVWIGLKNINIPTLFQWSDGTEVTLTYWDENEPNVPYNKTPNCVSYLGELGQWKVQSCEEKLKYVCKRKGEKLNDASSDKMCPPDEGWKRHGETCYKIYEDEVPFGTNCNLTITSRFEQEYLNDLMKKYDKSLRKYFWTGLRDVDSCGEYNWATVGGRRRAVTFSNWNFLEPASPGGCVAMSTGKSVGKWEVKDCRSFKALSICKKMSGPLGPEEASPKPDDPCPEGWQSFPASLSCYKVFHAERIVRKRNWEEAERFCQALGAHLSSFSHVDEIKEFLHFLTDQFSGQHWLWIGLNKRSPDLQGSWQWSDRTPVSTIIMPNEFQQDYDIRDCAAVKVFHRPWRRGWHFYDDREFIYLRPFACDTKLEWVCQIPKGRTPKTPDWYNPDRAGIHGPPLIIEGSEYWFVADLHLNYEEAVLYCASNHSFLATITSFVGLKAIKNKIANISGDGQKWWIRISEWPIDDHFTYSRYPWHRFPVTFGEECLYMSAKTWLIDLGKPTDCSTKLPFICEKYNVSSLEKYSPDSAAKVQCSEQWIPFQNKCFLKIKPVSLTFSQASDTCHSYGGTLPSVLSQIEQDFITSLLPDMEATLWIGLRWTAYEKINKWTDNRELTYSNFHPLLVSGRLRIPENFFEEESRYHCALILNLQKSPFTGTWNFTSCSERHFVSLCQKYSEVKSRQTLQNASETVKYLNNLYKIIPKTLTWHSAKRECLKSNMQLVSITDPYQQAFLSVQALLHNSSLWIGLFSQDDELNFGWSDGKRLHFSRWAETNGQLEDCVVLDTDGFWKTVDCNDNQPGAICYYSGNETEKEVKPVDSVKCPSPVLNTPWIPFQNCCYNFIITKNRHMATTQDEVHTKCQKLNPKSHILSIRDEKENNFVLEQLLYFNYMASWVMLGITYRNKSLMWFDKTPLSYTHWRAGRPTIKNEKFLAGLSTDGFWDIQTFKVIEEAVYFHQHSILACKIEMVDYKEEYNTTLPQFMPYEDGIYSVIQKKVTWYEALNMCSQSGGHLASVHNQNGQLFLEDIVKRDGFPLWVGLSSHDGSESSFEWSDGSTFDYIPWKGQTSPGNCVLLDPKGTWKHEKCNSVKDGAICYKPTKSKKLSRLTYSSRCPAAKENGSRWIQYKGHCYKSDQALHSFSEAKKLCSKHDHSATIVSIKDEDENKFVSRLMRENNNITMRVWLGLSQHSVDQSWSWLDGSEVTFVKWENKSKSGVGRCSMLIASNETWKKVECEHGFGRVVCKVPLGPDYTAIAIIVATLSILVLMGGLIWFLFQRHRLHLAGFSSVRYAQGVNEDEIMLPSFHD

percent of DEC205+ DCs bound by FITC-PDI: > 50%
Substance: FITC-labeled HDM-derived PDI, recombinant (enzyme)
